What was measured:
[1] = tested on: ERK1 and ERK2 MAP kinases; test: FGF2-stimulated MAP kinase phosphorylation, Western blot; format: cell-based
Procedure: Since activation of MAP kinases by FGF2 is one of the earliest mitogenic signaling events within cells (Maher), the effects of LO on FGF2-stimulated MAP kinase phosphorylation were tested by Western blot analysis using an antibody specific for phospho-extracellular signal-regulated kinases 1 and 2 (ERK1 and ERK2). The amount of total ERK1 and ERK2 MAP kinases within the same cell extracts was determined by using an antibody that recognizes both the phospho- and non-phospho-forms of ERK1 and ERK2. […] Cell extracts were prepared and equal amounts of proteins (25 μg) were analyzed by 10% SDS-PAGE. Immunoblotting was performed using antibodies specific for the active forms of ERK1 and ERK2 (A) and total ERKs (B).

[2] = tested on: FGF2 nuclear localization in Swiss 3T3 cells; test: FGF2 nuclear localization, immunochemical staining; format: cell-based; settings: 0.28 nM FGF2 for 1 h
Procedure: After endocytosis, a fraction of exogenous FGF2 can enter the nucleus of a variety of cell types in a cell cycle-dependent manner (Mason; Rifkin et al.; Prats et al.; Stachowiak et al., 1996; Arese et al.; Baldin et al.). Thus, the possibility that oxidation of FGF2 by LO affects the nuclear localization of this growth factor was tested by using immunochemistry. In FIGS. […]

lysyl oxidase (LO) = molecular target: T1, lysyl oxidase (LO) (Bos taurus, UniProt P33072); test: LO-dependent H2O2 release, horseradish peroxidase-coupled fluorescence assay (substrate potential for LO); format: biochemical; settings: for substrate of LO (in words): factor as sole substrate, LO-dependent H2O2 release in vitro; for molar ratio of H2O2 released per mole of PDGF-AB at the plateau: 0.11 μM LO, 0.46 μM PDGF-AB
T1 construct: per mature LO molecule (32 kD); from tissue
T1 sequence (P33072 170-418): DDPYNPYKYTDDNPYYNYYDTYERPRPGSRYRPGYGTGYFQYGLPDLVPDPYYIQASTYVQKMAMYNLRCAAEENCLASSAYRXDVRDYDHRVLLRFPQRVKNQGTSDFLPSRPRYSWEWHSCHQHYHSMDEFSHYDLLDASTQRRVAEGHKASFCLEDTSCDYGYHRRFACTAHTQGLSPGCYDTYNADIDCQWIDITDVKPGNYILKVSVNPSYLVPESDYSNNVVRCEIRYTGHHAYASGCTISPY
Procedure: The oxidation of a primary amine substrate by LO yields stoichiometric amounts of the corresponding aldehyde, hydrogen peroxide and ammonia, as shown: RCH2NH2+O2+H2O→RCHO+H2O2+NH3 (Kagan, 1986). To assess the substrate potential of FGF2, LO-dependent H2O2 release was monitored in assays using FGF2 as the sole substrate, using both the optimum temperature for LO activity of 55° C. and the physiological temperature of 37° C. (Trackman et al., 1981).
LO reaction with FGF2 as a substrate was assessed by a horseradish peroxidase-coupled fluorescence assay for H2O2 production. Reaction mixtures contained 0.25 mg of sodium homovanillate(HVA), 40 μg of HRP, and FGF2 at doses as indicated below in 0.05 M sodium borate buffer, pH 8.2, in a final volume of 2 ml. Assays were initiated by the addition of LO to reaction mixtures. H2O2 release was continuously monitored at excitation and emission wavelengths of 315 and 425 nm, respectively, at a constant temperature of 55° C. or 37° C., as specified, in the thermostatted cuvette chamber of an SLM Aminco Bowman Series 2 Luminescence Spectrometer. All activity data were corrected for background rates of H2O2 release determined in complete assay mixtures supplemented with 200 μM BAPN, an irreversible inhibitor of LO. In FIG. 4, solid curves represent the time course of H2O2 release at 55° C. in the reaction of 0.16 μM LO with 0.23 (a), 0.45 (b) and 0.9 (c) μM FGF2, respectively. Dotted curve (d) represents the time course of H2O2 release in the reaction of 0.16 μM LO with 0.9 μM FGF2 at 37° C. The same data were obtained from three separate experiments.
Using the fluorometric assay (Trackman et al., 1981) to monitor LO-dependent H2O2 release in vitro, the substrate potential of other growth factors was also assessed. Major members of the FGF family tested included FGF 1, 4, 5, 6, 7 and EGF (note: All factors are human recombinant forms purchased from R & D Systems, Inc., Minneapolis, Minn.).
A human recombinant disulfide-linked dimer of VEGF165 (MW: 42 kDa)(R & D Systems) as a sole substrate was tested by using the standard in vitro LO catalysis assays as described above for FIG. 4 (Trackman et al., 1981). Curves represent the time course of H2O2 release at 55° C. (a) or 37° C. (b) in the reaction of 0.10 μM LO with 0.45 μM VEGF165. All activity data were corrected for background rates of H2O2 release determined in complete assay mixtures supplemented with the same amounts of LO preincubated with 100 μM BAPN for 15 min at 37° C. The same data were obtained from three separate experiments.
The standard in vitro LO catalysis assays as described above for FIG. 4 (Trackman et al., 1981) using human recombinant PDGF-AB (R & D Systems) as a sole substrate was tested. […] In FIG. 19, curves represent the time course of H2O2 release at 55° C. (a) and 37° C. (b) in the reaction of 0.11 μM LO with 0.46 μM PDGF-AB, respectively. All activity data were corrected for background rates of H2O2 release determined in complete assay mixtures supplemented with the same amounts of LO preincubated with 100 μM BAPN for 15 minutes at 37° C. The same data were obtained from three separate experiments.
To analyze the substrate potential of Tat, the standard in vitro LO catalysis assays as described in FIG. 4 (Trackman et al., 1981) was performed at the optimum temperature of 55° C. and at the physiological temperature of 37° C. A recombinant Tat with 9 lysines in a total of 86 amino acids was used as a sole substrate. FIG. 12A represents a dose and temperature-dependent response. Curves represent the time course of H2O2 release at 55° C. (solid) or 37° C. (dotted) in the reaction of 0.10 μM LO with 0.22 (a and d), 0.43 (b and e) and 0.85 (c and f) μM Tat, respectively. All activity data were corrected for background rates of H2O2 release determined in complete assay mixtures supplemented with the same amounts of LO preincubated with 100 μM BAPN for 15 min at 37° C. […]

[3] = tested on: growth-arrested Swiss 3T3 cells; test: FGF2-stimulated cell cycle progression, FACS analysis; format: cell-based; settings: 5 ng FGF2/ml (0.28 nM FGF2), 20 h
Procedure: The activity of native and LO-oxidized FGF2 on cell cycle progression was evaluated by using fluorescence activated cell sorting (FACS) analysis (Darzynkiewicz et al.). Swiss 3T3 cells were growth-arrested by incubation in 0.3% fetal bovine serum (FBS)/Dulbecco's Modified Eagle's Medium (DMEM) for 3 days. As depicted in FIGS. 6A-6C, the prepared growth-arrested cells were treated for 20 h at 37° C. with or without FGF2, LO, BAPN or their combinations as indicated. After treatment, cells were washed, suspended by treatment with trypsin, washed again and fixed in 0.5% formaldehyde/0.1% Triton X-100/PBS for 15 minutes on ice followed by incubation of samples in 10 μg propidium iodide and 20 units RNAse per ml of PBS for 60 minutes in the dark for DNA staining. The fluorescence intensities of each sample of 10,000 cells in G1, S and G2/M phases were measured by flow cytometry at the FL2 setting of the fluorescence activated cell sorting (FACS) instrument (Becton-Dickinson Corp.). […] LO was presented at 10 nM, FGF2 at 5 ng ml^−1 and BAPN at 100 μM. Data represent the means (+sd) of three separate experiments each assessed with duplicate dishes.

[4] = tested on: growth-arrested Swiss 3T3 cells; test: PDGF-AB-stimulated cell cycle progression, FACS analysis; format: cell-based; settings: 15 ng PDGF-AB/ml (0.56 nM), 20 h
Procedure: Growth-arrested Swiss 3T3 cells were incubated for 20 h at 37° C. with or without PDGF-AB, LO, BAPN or their combinations as indicated. After incubation, FACS analysis was carried out to characterize the cell cycle progression under different conditions as described in FIG. 6. FIG. 20A represents a dose response of PDGF-AB in cell cycle progression. FIG. 20B represents the LO inhibition of PDGF-AB-stimulated cell cycle progression (the control represents cells treated with 15 ng ml^−1 PDGF-AB in the absence of added LO). FIG. 20C represents the effects of inactivation of LO by BAPN on PDGF-AB-stimulated the cell cycle progression. LO: 15 nM, PDGF-AB: 15 ng ml^−1, BAPN: 100 AM. Data represent the means (±sd) of three separate experiments each assessed with triplicate dishes.

Row | Compound | MAP kinase activation by FGF2 ([1]; 200 μM genistein) | nuclear FGF2 staining [2] | tyrosine phosphorylation of 42- and 44-kDa ERKs ([1]; 5 ng/ml FGF2, 10 min, versus control) | maximum H2O2 released per mole of FGF2 (lysyl oxidase (LO); 37° C., 0.16 μM LO, 0.9 μM FGF2) | molar ratio H2O2 released per mole of FGF2 at the plateau (lysyl oxidase (LO); 55° C., 0.16 μM LO, 0.23 μM FGF2) | molar ratio H2O2 released per mole of FGF2 at the plateau (lysyl oxidase (LO); 55° C., 0.16 μM LO, 0.45 μM FGF2) | molar ratio H2O2 released per mole of FGF2 at the plateau (lysyl oxidase (LO); 55° C., 0.16 μM LO, 0.9 μM FGF2) | molar ratio H2O2 released per mole of FGF2, mean±standard deviation (lysyl oxidase (LO); 55° C., 0.16 μM LO, mean over 0.23, 0.45 and 0.9 μM FGF2) | substrate of LO (in words) (lysyl oxidase (LO)) | relative number of cells entering the S-M phases versus control (maximum effect) [3] [fold] | cells entering the S-M phases versus control (maximum effect) [4] [fold] | molar ratio of H2O2 released per mole of PDGF-AB at the plateau (lysyl oxidase (LO); 37° C.) | molar ratio of H2O2 released per mole of PDGF-AB at the plateau (lysyl oxidase (LO); 55° C.)
1 | O=c1c(-c2ccc(O)cc2)coc2cc(O)cc(O)c12 [genistein, reference compound] | inhibited |  |  |  |  |  |  |  |  |  |  |  | 
2 | FGF2: 18 kDa human recombinant FGF2, 14 lysine residues |  | significantly increased nuclear staining | markedly increased | 5.3 moles of H2O2 per mole of FGF2 | 14.1 | 14.6 | 14.2 | 14.3±0.3 | productive substrate for LO | 4.7 |  |  | 
3 | PDGF-AB: 27 kDa human recombinant PDGF-AB heterodimer, 21 lysine residues |  |  |  |  |  |  |  |  | substrates of LO |  | 3.3 | 3.0 | 19.5
